For the data set, the target named is DDX3X D1 WT (Homo sapiens, UniProt O00571 135-407). Description: NMR CSP.
Sequence of DDX3X D1 WT (O00571 135-407): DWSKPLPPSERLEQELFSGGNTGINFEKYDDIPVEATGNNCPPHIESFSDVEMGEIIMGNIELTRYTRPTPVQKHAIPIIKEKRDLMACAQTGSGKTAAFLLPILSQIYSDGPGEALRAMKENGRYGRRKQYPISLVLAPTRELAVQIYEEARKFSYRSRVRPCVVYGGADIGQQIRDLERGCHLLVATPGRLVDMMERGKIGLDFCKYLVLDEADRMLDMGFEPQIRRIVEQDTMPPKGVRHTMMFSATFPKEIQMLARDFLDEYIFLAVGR

B1: blunt 14-mer dsRNA (NMR) (dsRNA)
RNA 1: GGGCGGGCCCGCCC
RNA 2: GGGCGGGCCCGCCC
In the case of B1, the binding result is recorded as “binds”.

(Values after publication PMC4402148.)
